Patent publication US11584772B2, “N4-modified cytidine nucleotides and their use” (VILNIUS UNIVERSITY, priority 2017, dated 2023)

Tests used:
[1] = cited from earlier work
[2] = mice; cited from earlier work
NLRC4 inflammasome = NLRC4 inflammasome (Homo sapiens, UniProt Q9NPP4); settings: cited from earlier work
[3] = test system: platelets and neutrophils; settings: cited from earlier work
[4] = esterase activity of purified recombinant proteins; assay type: biochemical; settings: purified His-tagged recombinant protein
From the text: (§1) Then recombinant proteins (EST, D6 and YqfB) having polyhystidine-tag at the N-terminus were purified by affinity chromatography, enzymatic activities of each protein were estimated.

[5] = hydrolysis of the amide bond of modified dCTP by purified recombinant proteins (amidase activity); assay type: biochemical; settings: purified His-tagged recombinant protein, 37° C., various buffer solutions
Method: as §1
All three selected proteins are able to hydrolyse the amide bond of N^4-modified cytidine nucleotide. The hydrolysis reaction proceeds in various buffer solutions at 37° C. Depending on the concentration of purified protein enzymatic reaction lasts from several minutes to several hours. […] Moreover, these proteins are capable of hydrolysing not only the amide bond of modified dCTP but also the amide bond of modified cytidine.

Chain of NLRC4 inflammasome (Q9NPP4 whole entry): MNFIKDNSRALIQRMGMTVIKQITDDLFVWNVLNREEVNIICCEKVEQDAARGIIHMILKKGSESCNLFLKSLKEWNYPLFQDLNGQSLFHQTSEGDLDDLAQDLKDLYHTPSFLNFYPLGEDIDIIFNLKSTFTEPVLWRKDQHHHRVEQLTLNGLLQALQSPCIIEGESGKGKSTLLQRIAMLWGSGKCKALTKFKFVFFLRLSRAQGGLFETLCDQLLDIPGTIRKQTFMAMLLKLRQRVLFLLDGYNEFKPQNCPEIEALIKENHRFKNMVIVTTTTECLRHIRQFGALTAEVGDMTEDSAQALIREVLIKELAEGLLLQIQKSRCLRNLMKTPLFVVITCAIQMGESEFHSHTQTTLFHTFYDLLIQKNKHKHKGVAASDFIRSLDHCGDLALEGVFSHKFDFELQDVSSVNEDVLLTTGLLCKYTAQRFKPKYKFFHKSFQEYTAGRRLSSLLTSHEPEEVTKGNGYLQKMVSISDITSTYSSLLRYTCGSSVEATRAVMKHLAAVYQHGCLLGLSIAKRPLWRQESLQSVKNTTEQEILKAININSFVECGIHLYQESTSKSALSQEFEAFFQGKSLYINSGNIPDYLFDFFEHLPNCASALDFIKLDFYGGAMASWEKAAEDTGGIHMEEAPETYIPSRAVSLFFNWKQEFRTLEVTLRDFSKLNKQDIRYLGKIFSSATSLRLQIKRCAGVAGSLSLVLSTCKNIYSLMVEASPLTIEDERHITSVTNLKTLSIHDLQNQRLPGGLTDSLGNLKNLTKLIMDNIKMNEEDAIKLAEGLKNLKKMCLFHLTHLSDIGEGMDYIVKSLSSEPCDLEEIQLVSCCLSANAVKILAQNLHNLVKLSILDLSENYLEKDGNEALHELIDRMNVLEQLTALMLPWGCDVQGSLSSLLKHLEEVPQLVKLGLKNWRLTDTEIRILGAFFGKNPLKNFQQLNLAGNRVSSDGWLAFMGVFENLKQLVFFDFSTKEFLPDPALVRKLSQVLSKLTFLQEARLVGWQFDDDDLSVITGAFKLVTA

Molecule	production of IL-1μ [1]	blood pressure [2]	activation of the NLRC4 inflammasome (NLRC4 inflammasome)	activation of platelets and neutrophils [3]	esterase activity [4]	hydrolysis of the amide bond of modified dCTP (activity of amidase) [5]
CC(=O)Nc1ccn([C@@H]2O[C@H](CO)[C@@H](O)[C@H]2O)c(=O)n1 [N^4-acetyl-cytidine]	induces the production of IL-1μ	elevates blood pressure in mice	activates the NLRC4 inflammasome	activates platelets and neutrophils	–	–
D6: recombinant protein selected from metagenomic library, polyhystidine-tag at the N-terminus; amidase and esterase (protein, N-terminal His tag; Metagenomic origin, recombinant protein selected from metagenomic library, polyhystidine-tag at the N-terminus; amidase and esterase) MEQLKFQKNWNNKCSCDFFTTIRLKGPKYTVGKELEMRIYKGGVFQNHGMIRVASLRPIQLHQINEWISRLDSGLSPEELRSELFYMYKDKVADVNKVDFYLILCERVKSKPIQNALFSTESTPAHD	–	–	–	–	behave as esterases	hydrolyse the amide bond of modified dCTP
YqfB: recombinant protein selected from metagenomic library, polyhystidine-tag at the N-terminus; amidase and esterase (protein, listed as Escherichia coli, N-terminal His tag, recombinant protein selected from metagenomic library, polyhystidine-tag at the N-terminus; amidase and esterase) MQPNDITFFQRFQDDILAGRKTITIRDESESHFKTGDVLRVGRFEDDGYFCTIEVTATSTVTLDTLTEKHAEQENMTLTELKKVIADIYPGQTQFYVIEFKCL	–	–	–	–	behave as esterases	hydrolyse the amide bond of modified dCTP
EST: recombinant protein selected from metagenomic library, polyhystidine-tag at the N-terminus; amidase and esterase (protein, N-terminal His tag; Metagenomic origin, recombinant protein selected from metagenomic library, polyhystidine-tag at the N-terminus; amidase and esterase) MSSLFIGQVFAKTPEVQTSDLTGNTTCSNLVGMVIPADEIGLPTSGATITSATLKIVEDGAIKDAEYCEVLGAIHPVDPTAPDINFQVNLPTNWNKKFLQFGGGYFNGTVRTGLGNPPAGDRKLGKNTPLAQGYVTFGSDSGNSTAPLDASFGMNDEALKNFAGDQLKKTKDVALALANVRYNAVPDQVYFAGGSEGGREGLFIVQNFPDEYDGVISVYPVLNWIPKALKDNRDAQALYKNDGEGWISPEENDLINETVFKACDSLDGVKDGIISNTSECAEKEDKILDTLSESLSEKQIEVIKSFNGPMEFDIQLANDFTTMPGYSQLQGADIGRLFGTRPIPGVPPVVSESVGHVIDEQDALMGVYSDQVIRYKITRNPDFNTLTFDPNEYREEILKASNLLDVTDPNISEFRENGGKLILVHGTEDEMVAPQGTSDYYSKLVNEFGQESLDEFAQYYLVPGFSHGGGNFTMSANLLGALDAWVVNGDVPSNLVAEDQNSATFGRTRPLCEYPTYPQYNGSGDVNSAASFTCLKADKDKDISASDIQKLIEKFEVDGEFANHGTARSLQAHLDILIKLESQERETVDQIVKHTQKFIKLLDNHKKNGKITDHAYNTLKELAESYIKQIK	–	–	–	–	behave as esterases	hydrolyse the amide bond of modified dCTP
